# Results reported in patent US20180369326A1 (LA JOLLA INSTITUTE FOR ALLERGY AND IMMUNOLOGY, published 2018).
# T1: WT ICOS (wild-type inducible T-cell costimulator, transfected into Jurkat JTAg T cells) (Homo sapiens (Human), UniProt Q9Y6W8 21-199)
# T1 sequence: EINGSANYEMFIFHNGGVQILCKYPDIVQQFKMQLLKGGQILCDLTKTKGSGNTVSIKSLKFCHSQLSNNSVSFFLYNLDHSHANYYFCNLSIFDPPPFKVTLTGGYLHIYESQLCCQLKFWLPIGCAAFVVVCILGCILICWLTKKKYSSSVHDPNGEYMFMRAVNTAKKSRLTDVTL
# B1: TANK-binding kinase 1 (TBK1), endogenous, human cell lines (Jurkat JTAg, HEK293T) (enzyme, UniProt Q9UHD2 1-729, looked up)
# chain: MQSTSNHLWLLSDILGQGATANVFRGRHKKTGDLFAIKVFNNISFLRPVDVQMREFEVLKKLNHKNIVKLFAIEEETTTRHKVLIMEFCPCGSLYTVLEEPSNAYGLPESEFLIVLRDVVGGMNHLRENGIVHRDIKPGNIMRVIGEDGQSVYKLTDFGAARELEDDEQFVSLYGTEEYLHPDMYERAVLRKDHQKKYGATVDLWSIGVTFYHAATGSLPFRPFEGPRRNKEVMYKIITGKPSGAISGVQKAENGPIDWSGDMPVSCSLSRGLQVLLTPVLANILEADQEKCWGFDQFFAETSDILHRMVIHVFSLQQMTAHKIYIHSYNTATIFHELVYKQTKIISSNQELIYEGRRLVLEPGRLAQHFPKTTEENPIFVVSREPLNTIGLIYEKISLPKVHPRYDLDGDASMAKAITGVVCYACRIASTLLLYQELMRKGIRWLIELIKDDYNETVHKKTEVVITLDFCIRNIEKTVKVYEKLMKINLEAAELGEISDIHTKLLRLSSSQGTIETSLQDIDSRLSPGGSLADAWAHQEGTHPKDRNVEKLQVLLNCMTEIYYQFKKDKAERRLAYNEEQIHKFDKQKLYYHATKAMTHFTDECVKKYEAFLNKSEEWIRKMLHLRKQLLSLTNQCFDIEEEVSKYQEYTNELQETLPQKMFTASSGIKHTMTPIYPSSNTLVEMTLGMKKLKEEMEGVVKELAENNHILERFGSLTMDGGLRNVDCL
# notes: Species follows from the human cell lines; also called endogenous TBK1
# Experiments:
# [1] = molecular target: WT ICOS (wild-type inducible T-cell costimulator, transfected into Jurkat JTAg T cells) (Homo sapiens (Human)) (UniProt Q9Y6W8); test: SILAC mass spectrometry of anti-ICOS IPs from Jurkat cells expressing WT ICOS or mIProx, stimulated with anti-CD3 plus anti-ICOS
# [2] = molecular target: T1, WT ICOS (wild-type inducible T-cell …); test: as above
# Description: FACS-sorted GFP⁺ transduced cells were stimulated with α-CD3 plus α-ICOS mAbs for 2 minutes. 300 μg of the protein mixture derived from WT and mutant cell lysate were mixed at a 1:1 ratio, and immunoprecipitated with anti-ICOS mAb. Immunoprecipitants were subjected to an on-bead digestion protocol. The proteins were reduced with 100 mM Tris-HCl/8 M urea/5 mM tris(2-carboxyethyl)phosphine, and alkylated with 10 mM iodoacetamide. The solution was diluted 1:4 and digested with 1 μg of trypsin at 37° C. overnight. […] MS analysis was performed using an LTQ-Orbitrap Velos mass spectrometer (Thermo Fisher). […] The experiments were biologically repeated in four replicates, including medium isotope type swapping (heavy or light) between WT and mutant cells.
# [3] = molecular target: B1; test: anti-FLAG IP and immunoblot, transfected HEK293T cells (FIG. 6e)
# Description: Shown are representative of three experiments.
# (§1) The human leukemic Jurkat T cell line, JTAg, was previously described (Li, J et al. J Immunol 2013, 191(1): 200-207; Rolf J et al., J Immunol 2010, 185(7): 4042-4052) and the HEK 293T cell line was obtained from ATCC. These cell lines have not been recently STR profiled but tested negative for mycoplasma contamination. JTAg cells in logarithmic growth phase were transfected with plasmid DNAs by electroporation and incubated for 24 hours.
# [4] = molecular target: T2, p85α, the regulatory subunit of PI3K, endogenous, Jurkat cells (human, UniProt P27986 2-724); test: co-IP (anti-ICOS IP, immunoblot), transfected Jurkat cells stimulated with anti-CD3 plus anti-ICOS (FIG. 2b, 2c)
# T2 construct: Species follows from the human cell line; also called p85a
# T2 sequence (P27986 2-724): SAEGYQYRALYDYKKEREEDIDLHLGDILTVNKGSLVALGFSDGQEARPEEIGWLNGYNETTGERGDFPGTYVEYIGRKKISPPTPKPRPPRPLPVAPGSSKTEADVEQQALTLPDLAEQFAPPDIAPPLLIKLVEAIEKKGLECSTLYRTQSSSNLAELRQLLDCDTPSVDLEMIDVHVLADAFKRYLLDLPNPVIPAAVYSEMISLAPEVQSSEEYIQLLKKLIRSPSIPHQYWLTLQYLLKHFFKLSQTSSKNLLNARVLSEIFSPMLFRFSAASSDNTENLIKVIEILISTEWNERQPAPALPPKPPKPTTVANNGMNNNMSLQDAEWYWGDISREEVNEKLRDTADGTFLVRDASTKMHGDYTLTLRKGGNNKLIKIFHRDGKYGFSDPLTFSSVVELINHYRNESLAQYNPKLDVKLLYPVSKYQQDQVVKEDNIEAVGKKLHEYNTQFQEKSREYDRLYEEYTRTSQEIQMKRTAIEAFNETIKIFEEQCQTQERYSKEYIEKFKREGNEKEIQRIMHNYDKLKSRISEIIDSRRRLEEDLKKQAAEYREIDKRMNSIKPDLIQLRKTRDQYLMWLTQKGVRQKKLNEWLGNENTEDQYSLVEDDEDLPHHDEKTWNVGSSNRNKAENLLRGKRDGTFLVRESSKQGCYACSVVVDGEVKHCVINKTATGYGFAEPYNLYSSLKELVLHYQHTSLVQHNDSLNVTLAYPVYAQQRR
# From the text: IPs or whole cell lysates (WCL) were immunoblotted with the indicated Abs. 5% WCL was used as input to control for IP Western. […] Jurkat T cells transfected with WT ICOS, mIProx, YF or tailless (TL) ICOS plasmids were stimulated with anti-CD3 plus −ICOS mAbs prior to IP and immunoblotting. […] In vitro activated primary mouse CD4⁺ T cells were stimulated with anti-CD3 plus the indicated costimulatory mAbs, and IP or WCL were subjected to immunoblotting with the indicated Abs. Shown are representative of three experiments.
# as §1
Molecule,"Fold Change (differential binding ratio, WT ICOS IP vs mIProx ICOS IP) [1]",also measured
"BAG6 (chaperone), endogenous, Jurkat cells (from UniProt P46379 1-1132)",3.13 fold,–
"SLP76 (TCR signaling), endogenous, Jurkat cells (from UniProt Q13094 1-533)",2.08 fold,–
"Erlin2 (ER protein), endogenous, Jurkat cells (from UniProt O94905 1-339)",1.81 fold,–
"MYCBP2 (E3 ligase), endogenous, Jurkat cells (from UniProt O75592 1-4678) (enzyme)",5.26 fold,–
"GAK (cell cycle kinase), endogenous, Jurkat cells (from UniProt O14976 2-1311) (enzyme)",2.17 fold,–
"NAA10 (acetyltransferase), endogenous, Jurkat cells (from UniProt P41227 1-235) (enzyme)",2.95 fold,–
B1,–,"Fold Change (differential binding ratio, WT ICOS IP vs mIProx ICOS IP) [2]: 7.69 fold"
"FLAG-tagged WT TRAF3 (other, Expressed in HEK293T cells; The position of the FLAG tag is unknown; not shown: FLAG tag) MESSKKMDSPGALQTNPPLKLHTDRSAGTPVFVPEQGGYKEKFVKTVEDKYKCEKCHLVLCSPKQTECGHRFCESCMAALLSSSSPKCTACQESIVKDKVFKDNCCKREILALQIYCRNESRGCAEQLMLGHLLVHLKNDCHFEELPCVRPDCKEKVLRKDLRDHVEKACKYREATCSHCKSQVPMIALQKHEDTDCPCVVVSCPHKCSVQTLLRSELSAHLSECVNAPSTCSFKRYGCVFQGTNQQIKAHEASSAVQHVNLLKEWSNSLEKKVSLLQNESVEKNKSIQSLHNQICSFEIEIERQKEMLRNNESKILHLQRVIDSQAEKLKELDKEIRPFRQNWEEADSMKSSVESLQNRVTELESVDKSAGQVARNTGLLESQLSRHDQMLSVHDIRLADMDLRFQVLETASYNGVLIWKIRDYKRRKQEAVMGKTLSLYSQPFYTGYFGYKMCARVYLNGDGMGKGTHLSLFFVIMRGEYDALLPWPFKQKVTLMLMDQGSSRRHLGDAFKPDPNSSSFKKPTGEMNIASGCPVFVAQTVLENGTYIKDDTIFIKVIVDTSDLPDP",–,binding result [3]: binds
"ICOS with alanine-substituted IProx motif (170…179 to 170AAAAAAAAAA179) (receptor, Expressed from a plasmid in Jurkat JTAg cells; also called mIProx; IProx mutant) EINGSANYEMFIFHNGGVQILCKYPDIVQQFKMQLLKGGQILCDLTKTKGSGNTVSIKSLKFCHSQLSNNSVSFFLYNLDHSHANYYFCNLSIFDPPPFKVTLTGGYLHIYESQLCCQLKFWLPIGCAAFVVVCILGCILICWLTKKKYAAAAAAAAAAYMFMRAVNTAKKSRLTDVTL",–,binding result [4]: binds
